# Tests used:
# Type in all cases: biochemical, bovine
# BSA [1] = target: T1, BSA (Bos taurus, UniProt P02769); experiment: Tryptic digestion without dye, sub-sampled and quenched with protease inhibitors, then read with epicocconone (Example 8); conditions: no dye during digestion; sub-sampling and quenching with protease inhibitors
# T1 construct: purchased Sigma-Aldrich A3059
# Method: 1. The trypsin inhibitors, leupeptin and trypsin-inhibitor (soybean) were prepared at a concentration of 1 mM in RO water and 0.48 mg/mL in RO water, respectively. 2. The protein samples were prepared as previously described in Example 6. The reduced and alkylated protein samples were diluted 1:10 in 100 mM bicine buffer (pH 8.4-5). 3. Trypsin (4.62 μg) was added to each protein sample (231 μg/300 μL) at a ratio of 1:50 and the samples were incubated at 37° C. 4. Sub-samples were collected for inhibition of trypsin activity either by leupeptin or by trypsin inhibitor (soybean). • a. Forty-five microlitres of the tryptic digests were sub-sampled at 0, 10, 20, 30, 60, […], 90, and 120 minutes and immediately added to 1.5 mL tubes containing 5 μL of 1 mM leupeptin. The sub-samples treated with leupeptin inhibitor were left at room temperature until fluorescence was read. • b. […] The sub-samples treated with soybean trypsin inhibitor were left at room temperature until fluorescence was read. […] Fluorescence of the sub-samples was read at Ex/Em=540-10/630-10 nm with 10 flashes. […] The fluorescence value was normalised by subtracting basal fluorescence of corresponding controls from the raw fluorescence of the sub-samples. […]
# BSA [2] = target: T1, BSA; experiment: Real-time monitoring of BSA proteolysis with different fluorophores in the presence of detergent (Example 7); conditions: method of example 7, real-time with fluorophore and SDS
# Method: • 1 Trypsin and papain digestion was carried out in bicine buffer at pH 8.4 and pH 7.0, respectively. • 2 BSA was prepared in 10 mg/mL in 100 mM bicine buffer. • 3 One hundred microliter of the BSA sample was used for trypsin and papain digestion.
# 7.2.2 Real-Time Monitoring of Trypsin Digestion with Fluorophores in the Presence of a Detergent • 1. The reduced and denatured BSA sample was diluted 10-fold in 100 mM bicine buffer (25 μL+225 μL bicine buffer). • 2. One hundred microliter of the sample (step 1) was added to a well in a 96-well microtiter plate. Controls included a bicine-based digestion buffer, a trypsin sample or papain only and an undigested BSA sample (no trypsin or no papain). The assay consists of a 4-well sample set for one fluorophore, e.g. SYPROorange. Three sets of samples were prepared in the same manners for the remaining fluorophores, e.g. Nile red, epicocconone and […]. • 3. SYPROorange stock solution was diluted 5000-fold in the bicine buffer (pH 8.4). Nile red and epicocconone and stock solutions were diluted 100-fold in the 100 mM bicine (pH 8.5). ANS was diluted 100-fold in the bicine buffer (pH 7.0). • 4. […] Fluorescence development was monitored in real time every 2 minutes up to 400 minutes using FluoStar (Ex/Em=485/600±10 for SYPROorange; 540±10/630±10 for epicocconone and Nile red; 355/460 for ANS). […]
# BSA [3] = target: T1, BSA; experiment: Tryptic digestion of BSA followed with SYPROorange; conditions: SYPROorange reporter dye
# Method: • As per Example 2 above. • SYPROorange (24 mM in DMSO, Molecular Probes) diluted to 100-fold in 50 mM bicine
# As per Example 2 except the Fluorostar plate reader was set to 480 nm excitation and 600 (±10 nm) bandpass emission filter.
# BSA [4] = target: T1, BSA; experiment: SDS-PAGE validation of BSA proteolysis in the presence of different fluorophores (Example 7); conditions: after 120 minutes
# From the text: The normalised data were used for Prism analysis for obtaining the rate constants. In each case, the protein with fluorophore (open squares) is fitted to a single phase exponential decay (Y=span*exp(−kX)+plateau) and the value for k used as the fixed value for k1 in a two phase exponential decay (Y=span1*exp(−k1X)+span2*exp(−k2X)+plateau) for the protein plus papain (open circles). Through this method it was possible to measure the rate constants for hydrolysis and predict the time point for complete hydrolysis. […] It can be seen from this figure that the bands associated with the protein have disappeared after 120 minutes and that only a faint band for residual papain or trypsin can be seen. In some cases there are also some larger peptide fragments remaining after digestion that are resistant to further hydrolysis.
# T1 sequence (P02769 25-607): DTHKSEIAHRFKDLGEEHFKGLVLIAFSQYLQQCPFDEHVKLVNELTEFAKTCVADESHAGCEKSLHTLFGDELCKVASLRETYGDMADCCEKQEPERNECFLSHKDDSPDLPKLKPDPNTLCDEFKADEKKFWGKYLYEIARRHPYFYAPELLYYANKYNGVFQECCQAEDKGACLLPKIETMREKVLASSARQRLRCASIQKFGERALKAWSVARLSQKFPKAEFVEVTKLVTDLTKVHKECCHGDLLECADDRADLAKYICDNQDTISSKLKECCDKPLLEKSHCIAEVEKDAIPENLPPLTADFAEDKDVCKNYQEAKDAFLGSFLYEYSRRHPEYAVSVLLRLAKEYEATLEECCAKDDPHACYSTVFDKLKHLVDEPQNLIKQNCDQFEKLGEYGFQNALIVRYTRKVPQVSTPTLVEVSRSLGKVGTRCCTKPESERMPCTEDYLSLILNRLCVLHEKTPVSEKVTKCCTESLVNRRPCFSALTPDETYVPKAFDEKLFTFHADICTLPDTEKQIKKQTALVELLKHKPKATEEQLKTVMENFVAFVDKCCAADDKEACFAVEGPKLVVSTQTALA
molecule,measurement,setting,value
"trypsin: Proteomics grade trypsin protease, Sigma-Aldrich T6567 (protein, UniProt P00761 9-231, looked up) Trypsin: IVGGYTCAANSIPYQVSLNSGSHFCGGSLINSQWVVSAAHCYKSRIQVRLGEHNIDVLEGNEQFINAAKIITHPNFNGNTLDNDIMLIKLSSPATLNSRVATVSLPRSCAAAGTECLISGWGNTKSSGSSYPSLLQCLKAPVLSDSSCKSSYPGQITGNMICVGFLEGGKDSCQGDSGGPVVCNGQLQGIVSWGYGCAQKNKPGVYTKVCNYVNWIQQTIAAN",pseudo-first order rate constant for digestion of BSA,BSA [1],0.3 min⁻¹
same,pseudo-first order rate constant for digestion of BSA,BSA [2],0.1 to 0.2 min⁻¹
same,apparent first order rate constant for tryptic digestion,BSA [3],0.1466 min⁻¹
same,digestion of BSA by SDS-PAGE,BSA [4],complete digestion

# Source: patent publication US20090111104A1, “Method for Monitoring Hydrolytic Activity” (Fluorotechnics Pty Limited, priority 2005, published 2009)
